Reference: patent publication US20200216514A1, “Generalized Extracellular Molecule Sensor” (ETH ZURICH, priority 2019, published 2020)

How the values were obtained:
[1] = cited from earlier work
[2] = tested on: JAK/STAT signaling through STAT3; assay: C-STAR caffeine-inducible STAT3 SEAP reporter assay in HEK-293T cells; format: cell-based, human; conditions: 1 μM concentration; C-STARDB1 cells; FIG. 22
Description: All cells were cultured in a humidified atmosphere containing 5% CO2 at 37° C.

WEN1.3 cells = assay: Endogenous IL-10 secretion (ELISA) in WEN1.3 hybridoma cells; format: cell-based; conditions: for Fold change (IL-10 concentration in supernatant): 0 ng vs. 100 ng RR120/mL, 24 h
Description: WEN1.3 cells (See Pogson M et al., Nat. Commun., 2016, 7:12535) were cultivated in DMEM (52100039, Thermo Fisher) supplemented with 10% (v/v) heat-inactivated FBS (F7524, lot BCBS0318V, Sigma-Aldrich), 1% (v/v) streptomycin/penicillin (L0022, Biowest), 10 mM HEPES buffer (Ser. No. 15/630,056, Thermo Fisher), and […] 2-mercaptoethanol (M3148, Sigma-Aldrich) in a humidified atmosphere of 5% CO2 in air at 37° C. Cells were transfected by electroporation with program CQ-104 of the 4D-Nucleofector System (Lonza) and the SF Cell Line 4D-Nucleofector X Kit L (V4XC-2024, Lonza).
For each transfection 1×10^6 cells were washed twice by centrifugation for 5 min at 90 g and then resuspended in 1 mL of Opti-MEM I Reduced Serum Medium (31985062, Thermo Fisher); after washing, the cells were resuspended in 100 μL Lonza SF buffer containing 0.5 μg sleeping beauty transposase expression plasmid (pCMV(CAT)T7-SB100) and 9.5 μg of a plasmid for stable integration and expression of JAK/STAT-GEMS (pLeo695) or MAPK-GEMS (pLeo694). After pulsing, 500 μL prewarmed culture medium was added for 10 min. Cells were transferred to 1 mL culture media in 24-well plates (142475, Thermo Fisher) and were grown for 48 h. For creating stable cell lines, cells were transferred to 3 mL culture media in 6-well plates (140675, Thermo Fisher) and were selected with 5 μg/mL puromycin (ANT-PR-1, InvivoGen) for 14 d. For experiments, cells were centrifuged for 5 min at 90 g and resuspended in culture media (with or without RR120) to give a concentration of 1×10^6 cells/mL, and then 500 μL of the cell suspension was transferred per well of a 48-well plate. IL-10 ELISAs (900-TM53, PeproTech) were performed 24 h after induction.

[3] = biological target: SunTag8×-mCherry fusion protein; assay: cell-based or functional assay
[4] = tested on: JAK/STAT signaling (STAT3 reporter); assay: GEMS STAT3-responsive SEAP reporter assay in HEK-293T cells; format: cell-based, human; conditions: for Fold change (SEAP reporter): 24 h induction; for Response to erythropoietin: FIG. 5B, with / without F93A modification of EpoR
Description: (§1) Human embryonic kidney cells (HEK-293T, American Type Culture Collection (ATCC): CRL-11268) were cultivated in Dulbecco's modified Eagle's medium (DMEM; 52100039, Thermo Fisher) supplemented with 10% (v/v) FBS (F7524, lot BCBS0318V, Sigma-Aldrich) and 1% (v/v) streptomycin/penicillin (L0022, Biowest) in a humidified atmosphere of 5% CO2 in air at 37° C. For experiments, 1.5×10^6 cells in 12 mL DMEM were seeded into 96-well plates (167008, Thermo Fisher) 24 h before transfection. The transfection mix in each well consisted of 125-130 ng of plasmid DNA mixed with 50 μL FBS and antibiotics-free DMEM and 600 ng of polyethyleneimine (24765-1, Polysciences, Inc.). The transfection mix was prepared separately, incubated for 20 min and then added to the cells for overnight transfection. In the morning, medium with the transfection mix was exchanged for 130 μL/well medium with different concentrations of the appropriate inducer or no inducer as a negative control. Reporter output was measured 24 h after induction for all experiments. Plasmid amounts used for transfections per set of six wells of a 96-well plate were as follows:
FIG. 3B; FIG. 4B: 5 ng for each receptor subunit or as indicated in the figure, 150 ng STAT3 reporter plasmid (pLS13), 25 ng STAT3 expression vector (pLS15) and […] (or the appropriate amount to make a total of 775 ng) of a plasmid without mammalian promoter (pDF145).
(§2) FIGS. 5A-C; FIG. 6A; FIG. 8; FIG. 9; FIGS. 10A-B; FIGS. 11A-C; FIG. 12; FIGS. 13A-B: 600 ng of receptor plasmids (for heterodimeric receptors 300 ng of each subunit) and for STAT readout 150 ng of a STAT3 reporter plasmid (pLS13) and 25 ng of a STAT3 expression vector (pLS15); for MAPK-readout 75 ng of a TetR reporter plasmid (pMF111) and 100 ng of a TetR-Elk1 fusion expression vector (MKp37); for NFAT readout 175 ng of a NFAT reporter plasmid (pHY30) and for NF-κB readout 175 ng of a NF-κB reporter plasmid (pKR32).
SEAP concentrations in cell culture supernatants were quantified in terms of absorbance increase due to hydrolysis of para-nitrophenyl phosphate (pNPP). 80 μL of heat-inactivated (30 min at 65° C., then centrifuged for 1 min, 3,220 g) supernatant was mixed in a 96-well dish with 100 μL of 2×SEAP buffer (20 mM homoarginine, 1 mM MgCl2, 21% (v/v) diethanolamine, pH 9.8) and 20 μL of substrate solution containing 20 mM pNPP (Acros Organics BVBA). Samples were measured at 405 nm with a Tecan Genios PRO multiplate reader (Tecan AG) or an EnVision 2104 multilabel reader (PerkinElmer). SEAP production in vivo was quantified with the chemiluminescence SEAP reporter gene assay (cat. no. 11779842001, Sigma-Aldrich) according to the manufacturer's instructions.

[5] = tested on: NFAT, STAT3 and MAPK signaling; assay: GEMS pathway crosstalk reporters (FIG. 13A-B) in HEK-293T cells; format: cell-based, human
Description: as §1, with “In the morning, medium with the transfection mix was exchanged for 130 μL/well medium with different concentrations of the appropriate inducer or no inducer as a negative control.” left out, “Plasmid amounts used for transfections per set of six wells of a 96-well plate were as follows:” left out
as §2, with “(pKR32). […]” for “(pKR32).”

Cn1c(=O)c2c(ncn2C)n(C)c1=O [caffeine]
Half-life of caffeine in human blood [1]: approximately five

Cn1c(=O)c2[nH]cnc2n(C)c1=O [theophylline]
Cross-activation of C-STAR by caffeine analogs [2]: modest cross-activation

O=S(=O)(O)c1cc(Nc2nc(Cl)nc(Nc3ccc(Nc4nc(Cl)nc(Nc5cc(S(=O)(=O)O)cc6cc(S(=O)(=O)O)c(N=Nc7ccccc7S(=O)(=O)O)c(O)c56)n4)cc3)n2)c2c(O)c(N=Nc3ccccc3S(=O)(=O)O)c(S(=O)(=O)O)cc2c1 [RR120, reactive red 120, reference compound]
Fold change (IL-10 concentration in supernatant) (WEN1.3 cells; WT WEN1.3 cells (no receptor)): 1.1 fold

B1: JAK/STAT-GEMSSunTag (pLeo620; scFvαGCN4-EpoRm-IL-6RBm) (receptor, part only; not given: Signal peptide and scFv-EpoR linker, part only)
chain, part: DIVMTQSPSSLSASVGDRVTITCRSSTGAVTTSNYASWVQEKPGKLFKGLIGGTNNRAPGVPSRFSGSLIGDKATLTISSLQPEDFATYFCALWYSNHWVFGQGTKVELKRGGGGSGGGGSGGGGSSGGGSEVKLLESGGGLVQPGGSLKLSCAVSGFSLTDYGVNWVRQAPGRGLEWIGVIWGDGITDYNSALKDRFIISKDNGKNTVYLQMSKVRSDDTALYYCVTGLFDYWGQGTLVTVSAPSPSLPDPKFESKAALLASRGSEELLCFTQRLEDLVCFWEEAASSGMDFNYSFSYQLEGESRKSCSLHQAPTVRGSVRFWCSLPTADTSSAVPLELQVTEASGSPRYHRIIHINEVVLLDAPAGLLARRAEEGSHVVLRWLPPPGAPMTTHIRYEVDVSAGNRAGGTQRVEVLEGRTECVLSNLRGGTRYTFAVRARMAEPSFSGFWSAWSEPASLLTASDLDPLILTLSLILVLISLLLTVLALLSAAANKRDLIKKHIWPNVPDPSKSHIAQWSPHTPPRHNFNSKDQMYSDGNFTDVSVVEIEANDKKPFPEDLKSLDLFKKEKINTEGHSSGIGGSSCMSSSRPSISSSDENESSQNTSSTVQASTVVHSGYRHQVPSVQVFSRSESTQPLLDSEERPEDLQLVDHVDGGDGILPRQQYFKQNCSQHESSPDISHFERSKQVSSVNEEDFVRLKQQISDHISQSCGSGQMKMFQEVSAADAFGPGTEGQVERFETVGMEAATDEGMPKSYLPQTVRQGGYMPQ
Fold change of MAPK reporter (NanoLuc), 0% vs. 0.002 % (v/v) bacterial lysate (SunTag), cells co-transfected with MAPK-GEMSRR120 (Y677F), FIG. 13C [3]: 1.3 fold
Fold change of SEAP, 0 % vs. 0.002 % (v/v) bacterial lysate (SunTag), FIG. 10A [3]: 6.9 fold
Fold change of SEAP, 0 % vs. 0.02 % (v/v) bacterial lysate (SunTag), FIG. 10A [3]: 30 fold
Fold change of STAT3 reporter (SEAP), 0% vs. 0.002 % (v/v) bacterial lysate (SunTag), cells co-transfected with MAPK-GEMSRR120 (Y677F), FIG. 13C [3]: 12.9 fold
Fold change of STAT3 reporter (SEAP), no inducer vs. 100 ng RR120/mL + 0.002 % (v/v) bacterial lysate (SunTag), cells co-transfected with MAPK-GEMSRR120 (Y677F), FIG. 13C [3]: 14.9 fold

B2: JAK/STAT-GEMSRR120: PSV40-VHHA52-EpoRm-IL-6RBm-pA; optimized chimeric receptor (GEMS device) targeting RR120, JAK/STAT signaling (protein)
chain: VQLQESGGGLVQAGDSLKLSCEASGDSIGTYVIGWFRQAPGKERIYLATIGRNLVGPSDFYTRYADSVKGRFAVSRDNAKNTVNLQMNSLKPEDTAVYYCAAKTTTWGGNDPNNWNYWGQGTQVTVSGEFAPSPSLPDPKFESKAALLASRGSEELLCFTQRLEDLVCFWEEAASSGMDFNYSFSYQLEGESRKSCSLHQAPTVRGSVRFWCSLPTADTSSAVPLELQVTEASGSPRYHRIIHINEVVLLDAPAGLLARRAEEGSHVVLRWLPPPGAPMTTHIRYEVDVSAGNRAGGTQRVEVLEGRTECVLSNLRGGTRYTFAVRARMAEPSFSGFWSAWSEPASLLTASDLDPLILTLSLILVLISLLLTVLALLSAAANKRDLIKKHIWPNVPDPSKSHIAQWSPHTPPRHNFNSKDQMYSDGNFTDVSVVEIEANDKKPFPEDLKSLDLFKKEKINTEGHSSGIGGSSCMSSSRPSISSSDENESSQNTSSTVQASTVVHSGYRHQVPSVQVFSRSESTQPLLDSEERPEDLQLVDHVDGGDGILPRQQYFKQNCSQHESSPDISHFERSKQVSSVNEEDFVRLKQQISDHISQSCGSGQMKMFQEVSAADAFGPGTEGQVERFETVGMEAATDEGMPKSYLPQTVRQGGYMPQ
Fold change (SEAP reporter) ([4]; 0 ng vs. 1 ng RR120/mL): 5.4 fold
Fold change (SEAP reporter) ([4]; 0 ng vs. 100 ng RR120/mL): 45 fold
Response to erythropoietin [4]: induced with RR120 but not with erythropoietin
Ratio of induced versus noninduced SEAP secretion (signal-to-noise ratio) ([4]; RR120 as inducer, FIG. 5C): over 40 fold
IL-10 secretion upon GEMS activation by RR120 (WEN1.3 cells; FIG. 14): substantially increased IL-10 secretion
Fold change (IL-10 concentration in supernatant) (WEN1.3 cells; stable polyclonal WEN1.3 cell line expressing the receptor): 1.5 fold
Crosstalk to other signaling pathways [5]: cancelled the interference with MAPK signaling

B3: pLeo618: PSV40-VHHA52-EpoR3A-IL-6RBm-pA; receptor with Y759A, without F93A modification (protein)
chain: VQLQESGGGLVQAGDSLKLSCEASGDSIGTYVIGWFRQAPGKERIYLATIGRNLVGPSDFYTRYADSVKGRFAVSRDNAKNTVNLQMNSLKPEDTAVYYCAAKTTTWGGNDPNNWNYWGQGTQVTVSGEFAPSPSLPDPKFESKAALLASRGSEELLCFTQRLEDLVCFWEEAASSGMDFNYSFSYQLEGESRKSCSLHQAPTVRGSVRFWCSLPTADTSSFVPLELQVTEASGSPRYHRIIHINEVVLLDAPAGLLARRAEEGSHVVLRWLPPPGAPMTTHIRYEVDVSAGNRAGGTQRVEVLEGRTECVLSNLRGGTRYTFAVRARMAEPSFSGFWSAWSEPASLLTASDLDPLILTLSLILVLISLLLTVLALLSAAANKRDLIKKHIWPNVPDPSKSHIAQWSPHTPPRHNFNSKDQMYSDGNFTDVSVVEIEANDKKPFPEDLKSLDLFKKEKINTEGHSSGIGGSSCMSSSRPSISSSDENESSQNTSSTVQASTVVHSGYRHQVPSVQVFSRSESTQPLLDSEERPEDLQLVDHVDGGDGILPRQQYFKQNCSQHESSPDISHFERSKQVSSVNEEDFVRLKQQISDHISQSCGSGQMKMFQEVSAADAFGPGTEGQVERFETVGMEAATDEGMPKSYLPQTVRQGGYMPQ
Response to erythropoietin [4]: respond strongly to erythropoietin
